Molecular target: full-length human BRAF, wild type (insect cell-produced) (human) (UniProt P15056)
Test: SEC-MALS

Chain of UniProt P15056 (P15056 whole entry): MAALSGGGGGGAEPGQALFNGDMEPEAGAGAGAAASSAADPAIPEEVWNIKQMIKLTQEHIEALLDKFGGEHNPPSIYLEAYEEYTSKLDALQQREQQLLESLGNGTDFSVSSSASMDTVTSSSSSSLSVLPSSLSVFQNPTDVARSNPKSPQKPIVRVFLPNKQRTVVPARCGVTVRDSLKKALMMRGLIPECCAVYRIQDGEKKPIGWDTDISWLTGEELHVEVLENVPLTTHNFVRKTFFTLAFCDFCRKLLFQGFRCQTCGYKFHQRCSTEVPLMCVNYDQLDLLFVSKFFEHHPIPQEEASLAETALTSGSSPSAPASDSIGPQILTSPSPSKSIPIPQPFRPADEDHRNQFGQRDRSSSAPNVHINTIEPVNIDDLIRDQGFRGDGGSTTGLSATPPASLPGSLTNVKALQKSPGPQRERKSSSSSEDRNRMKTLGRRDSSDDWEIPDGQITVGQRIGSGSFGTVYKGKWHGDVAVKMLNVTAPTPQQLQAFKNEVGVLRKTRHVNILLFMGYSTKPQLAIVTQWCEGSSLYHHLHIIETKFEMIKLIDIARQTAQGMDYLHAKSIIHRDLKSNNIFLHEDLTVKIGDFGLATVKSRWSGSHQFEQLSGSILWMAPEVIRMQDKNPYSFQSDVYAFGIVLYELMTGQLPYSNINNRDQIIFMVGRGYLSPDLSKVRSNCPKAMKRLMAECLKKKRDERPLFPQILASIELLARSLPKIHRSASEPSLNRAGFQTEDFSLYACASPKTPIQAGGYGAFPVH

stoichiometry N (14-3-3 dimer per BRAF): 1
Substance: insect cell-derived 14-3-3ε,ζ dimer (complex)

Reference: paper PMC7014971
